The target of test [1] is T1, human Her3 on tumor cells (human, UniProt P21860 20-1342). The experiment in a line: cell-based or functional assay.
The target of test [2] is T2, human EGFR-His (human, UniProt P00533 25-645).
T2 construct: Bought protein
The experiment in a line: ELISA, coated human EGFR-His. On the technique in general: In an ELISA, binding on a coated surface is turned into a signal by an enzyme label.

Test [3] addresses T3, human Her2-His (human, UniProt P04626 23-652).
T3 construct: Bought protein
The experiment in a line: ELISA, coated human Her2-His.

The target of test [4] is T4, human Her4-His (human, UniProt Q15303 26-649, limits assumed).
T4 construct: Bought protein
T4 sequence (looked up): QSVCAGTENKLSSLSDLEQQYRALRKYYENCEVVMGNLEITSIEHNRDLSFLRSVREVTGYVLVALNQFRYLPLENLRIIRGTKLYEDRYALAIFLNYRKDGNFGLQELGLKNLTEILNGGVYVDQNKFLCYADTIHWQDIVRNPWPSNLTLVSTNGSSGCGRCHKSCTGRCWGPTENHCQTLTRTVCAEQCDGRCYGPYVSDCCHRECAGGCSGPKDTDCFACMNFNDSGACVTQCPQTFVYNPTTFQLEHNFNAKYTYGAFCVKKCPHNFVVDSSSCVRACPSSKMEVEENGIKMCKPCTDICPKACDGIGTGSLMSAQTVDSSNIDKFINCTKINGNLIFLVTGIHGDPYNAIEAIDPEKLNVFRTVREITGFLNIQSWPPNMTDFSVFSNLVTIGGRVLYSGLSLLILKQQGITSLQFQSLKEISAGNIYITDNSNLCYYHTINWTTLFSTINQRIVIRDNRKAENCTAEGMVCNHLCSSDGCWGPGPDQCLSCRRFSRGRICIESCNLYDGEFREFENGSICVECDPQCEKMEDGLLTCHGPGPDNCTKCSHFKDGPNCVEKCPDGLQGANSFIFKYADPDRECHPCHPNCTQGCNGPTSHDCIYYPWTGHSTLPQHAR
The experiment in a line: ELISA, coated human Her4-His.

Test [5] has as its target T1, human Her3 on tumor cells. The experiment in a line: flow cytometry, T47D tumor cells. On the technique in general: In flow cytometry, cells or beads pass a laser one at a time.
In test [6] the target is T2, human EGFR-His. The experiment in a line: ELISA, coated EGFR-his, antibody 40 ng/mL.
Test [7] concerns the target T3, human Her2-His. The experiment in a line: ELISA, coated Her2-his, antibody 40 ng/mL.
Test [8] concerns the target T5, human Her3-his (human, UniProt P21860 20-643).
T5 construct: Construct encodes positions 1-643 with its own leader; Expressed in HEK293F, purified on a Ni column; also called human Her3 protein
The experiment in a line: ELISA, coated Her3-his, antibody 40 ng/mL.

In test [9] the target is T4, human Her4-His. The experiment in a line: ELISA, coated Her4-his, antibody 40 ng/mL.
The target of test [10] is T2, human EGFR-His. The experiment in a line: ELISA, coated EGFR-his, antibody 200 ng/mL.
The target in test [11] is T3, human Her2-His. As to the kind of experiment: ELISA, coated Her2-his, antibody 200 ng/mL.
Test [12] concerns the target T5, human Her3-his. The experiment in a line: ELISA, coated Her3-his, antibody 200 ng/mL.
Test [13] concerns the target T4, human Her4-His. As to the kind of experiment: ELISA, coated Her4-his, antibody 200 ng/mL.
In test [14] the target is T1, human Her3 on tumor cells. The experiment in a line: flow cytometry, A549-human Her3 tumor cells.
Test [15] has as its target T2, human EGFR-His. The experiment in a line: ELISA, coated EGFR-his, antibody 1000 ng/mL.
In test [16] the target is T3, human Her2-His. As to the kind of experiment: ELISA, coated Her2-his, antibody 1000 ng/mL.
Test [17] has as its target T5, human Her3-his. The experiment in a line: ELISA, coated Her3-his, antibody 1000 ng/mL.
Test [18] has as its target T4, human Her4-His. As to the kind of experiment: ELISA, coated Her4-his, antibody 1000 ng/mL.
For test [19], the target named is T5, human Her3-his. As to the kind of experiment: ELISA, coated human Her3-his, anti-human Fc-HRP.
Test [20] has as its target T6, monkey Her3-his (monkey).
T6 chain: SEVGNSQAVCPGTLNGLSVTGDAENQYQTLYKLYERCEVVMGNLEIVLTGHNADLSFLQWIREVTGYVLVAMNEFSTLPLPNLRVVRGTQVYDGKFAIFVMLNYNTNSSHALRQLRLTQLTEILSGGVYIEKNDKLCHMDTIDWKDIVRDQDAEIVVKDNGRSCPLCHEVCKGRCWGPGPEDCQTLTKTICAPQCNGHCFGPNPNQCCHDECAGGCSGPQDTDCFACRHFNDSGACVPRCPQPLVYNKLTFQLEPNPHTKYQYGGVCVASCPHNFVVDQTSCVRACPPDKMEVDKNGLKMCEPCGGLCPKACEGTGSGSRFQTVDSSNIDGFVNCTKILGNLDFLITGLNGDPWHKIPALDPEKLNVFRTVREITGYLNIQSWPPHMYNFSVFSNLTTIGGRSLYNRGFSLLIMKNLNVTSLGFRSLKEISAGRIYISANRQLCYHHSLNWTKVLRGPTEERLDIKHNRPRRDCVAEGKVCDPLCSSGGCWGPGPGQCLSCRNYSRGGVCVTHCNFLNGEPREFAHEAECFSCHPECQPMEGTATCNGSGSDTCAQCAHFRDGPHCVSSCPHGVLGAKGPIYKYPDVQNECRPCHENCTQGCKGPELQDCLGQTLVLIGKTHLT
As to the kind of experiment: ELISA, coated monkey Her3-his, anti-human Fc-HRP.

The target in test [21] is T5, human Her3-his. As to the kind of experiment: BLI (Fortibio), antibody on ProteinA sensor, human Her3-His in solution, 1:1 model.
Test [22] deals with T7, rat Her3-his (rat).
T7 chain: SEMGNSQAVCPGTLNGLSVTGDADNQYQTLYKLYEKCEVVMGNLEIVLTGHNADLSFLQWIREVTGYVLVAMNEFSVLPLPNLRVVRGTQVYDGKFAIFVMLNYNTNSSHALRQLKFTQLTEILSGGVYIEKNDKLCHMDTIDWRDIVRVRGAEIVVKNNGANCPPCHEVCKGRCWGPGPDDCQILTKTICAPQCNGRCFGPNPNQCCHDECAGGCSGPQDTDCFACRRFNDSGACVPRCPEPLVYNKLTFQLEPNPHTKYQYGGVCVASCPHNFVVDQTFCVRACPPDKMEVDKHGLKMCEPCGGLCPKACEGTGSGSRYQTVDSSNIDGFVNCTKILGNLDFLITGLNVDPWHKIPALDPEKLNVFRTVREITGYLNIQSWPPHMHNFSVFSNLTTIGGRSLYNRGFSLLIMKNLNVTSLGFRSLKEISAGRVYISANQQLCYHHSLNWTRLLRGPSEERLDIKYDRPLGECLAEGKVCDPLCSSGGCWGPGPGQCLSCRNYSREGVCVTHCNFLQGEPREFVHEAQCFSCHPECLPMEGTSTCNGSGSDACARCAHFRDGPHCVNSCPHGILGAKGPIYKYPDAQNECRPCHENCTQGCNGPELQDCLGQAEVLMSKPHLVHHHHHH
As to the kind of experiment: ELISA, coated rat Her3-his, anti-human Fc-HRP.

B1: antibody 202-2-1 (antibody, human IgG1, kappa, V domains shown)
VH: EVQLVESGGGVVQPGRSLRLSCAASGFTFSTYGMHWVRQAPGKGLEWVAVIWYDVSHKYYADSVKGRFTISRDNSKNTLSLQMNSLRAEDTAVYYCARDWGDPDAFDIWGQGTMVTVSS
VL: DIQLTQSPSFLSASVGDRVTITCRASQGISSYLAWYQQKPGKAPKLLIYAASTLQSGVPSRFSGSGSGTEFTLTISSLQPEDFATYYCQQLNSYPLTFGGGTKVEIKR
notes: Fully human IgG1/kappa from a phage scFv library; expressed in HEK293F; also called Her3mAb
By EC50 is commonly meant the midpoint of the concentration-response curve. Usually Kd stands for a measure of binding affinity in units of concentration. A word on the koff: it is the rate constant with which the complex falls apart. As usually defined, the kon is a measure of how fast the partners come together. As to B1, in test [1], the “IC50 of inhibition of NRG1-induced AKT phosphorylation in MCF-7 cells (cell blotting, anti-Phospho Akt Ser473)” value is 0.243 nM. For the same molecule, the binding result in test [2] is “no binding (tested: 1 µg/mL, 200 ng/mL, and 40 ng/mL)”; in [3], “no binding (tested: 1 µg/mL, 200 ng/mL, and 40 ng/mL)”; in [4], “no binding (tested: 1 µg/mL, 200 ng/mL, and 40 ng/mL)”. Further, the EC50 was found to be 0.08 nM in test [5], 1.15 nM in [14], 0.021 nM in test [19] and 0.0159 nM in test [20]. Besides, the OD450 was determined as 0.051 in [6]; 0.049 in [7]; 0.573 in test [8]; 0.05 in [9]; 0.051 in test [10]; 0.05 in test [11]. Also, the OD450 was found to be 0.695 in [12]; 0.051 in test [13]; 0.051 in test [15]; 0.049 in test [16]; 0.61 in [17]; 0.051 in test [18]. Further, in test [14], the “Maximum MFI” value worked out at 63800 MFI. Also, binding in test [21] was put at a Kd of 13.1 nM. In test [21], this molecule gave a koff of 0.00218 s⁻¹. In addition, the kon in test [21] came to 167000 M⁻¹ s⁻¹.

B2: antibody 202-3-1 (antibody, human IgG1, kappa, V domains shown)
VH: QVQLQESGPGLVKPSETLSLTCTVSGGSISGYFWSWIRQSPGKGLEWIGYIHYSGRTNYNPSLKSRVTISVDTSKNQFSLKLSSVTAADTAVYYCARETGGSGHWYFDLWGRGNLVTVSS
VL: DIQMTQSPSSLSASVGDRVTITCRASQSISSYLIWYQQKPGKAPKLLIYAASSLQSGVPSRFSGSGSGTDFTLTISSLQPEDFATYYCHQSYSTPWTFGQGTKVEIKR
Consider B2, for which the “IC50 of inhibition of NRG1-induced AKT phosphorylation in MCF-7 cells (cell blotting, anti-Phospho Akt Ser473)” value in test [1] stood at 1.04 nM. Besides, the binding result in test [2] is “no binding (tested: 1 µg/mL, 200 ng/mL, and 40 ng/mL)”; in [3], “no binding (tested: 1 µg/mL, 200 ng/mL, and 40 ng/mL)”; in test [4], “no binding (tested: 1 µg/mL, 200 ng/mL, and 40 ng/mL)”. Moreover, the OD450 in test [6] was found to be 0.055; in test [7], 0.052; in test [8], 0.281; in test [9] it was 0.049; in test [10] it was 0.05; in [11], 0.049. In addition, the OD450 in test [12] came out at 0.344; in test [13], 0.051; in [15], 0.05; in test [16], 0.048; in test [17], 0.333; in test [18], 0.05. Also, the EC50 is 2.04 nM in [14], 0.154 nM in test [22], 0.0606 nM in test [19] and 0.0396 nM in test [20]. In [14], the “Maximum MFI” value came to 55700 MFI. Moreover, in test [21], the Kd amounted to 7.79 nM. In [21], this molecule came in with a koff of 0.00142 s⁻¹. This molecule also had a kon in test [21] of 182000 M⁻¹ s⁻¹.

B3: antibody 202-3-2 (antibody, human IgG1, kappa, V domains shown)
VH: QVQLQESGPGLVKPSETLSLTCTVSGGSISGYFWSWIRQSPGQGLEWIGYIHYSGRTNYNPSLKSRVTISVDTSKNQFSLQLSSVTAADTAVYYCARETGGSGHWYFDLWGRGNLVTVSS
VL: DIQMTQSPSSLSASVGDRVTITCRASQSISSYLIWYQQKPGQAPRLLIYAASSLQSGVPSRFSGSGSGTDFTLTISSLQPEDFATYYCHQSYSTPWTFGQGTKVEIKR
notes: IgG1/kappa
Regarding B3, the binding result in test [2] was “no binding (tested: 1 µg/mL, 200 ng/mL, and 40 ng/mL)”; in test [3], “no binding (tested: 1 µg/mL, 200 ng/mL, and 40 ng/mL)”; in test [4], “no binding (tested: 1 µg/mL, 200 ng/mL, and 40 ng/mL)”. Besides, the OD450 in test [6] is 0.051; in test [7], 0.05; in [8] it was 0.306; in [9], 0.051; in [10] it was 0.05; in test [11] it was 0.051. In addition, the OD450 in test [12] came out at 0.407; in test [13] it was 0.051; in test [15] it was 0.051; in test [16], 0.05; in test [17], 0.427; in [18], 0.05. Further, the EC50 came out at 2.59 nM in [14], 0.225 nM in [22], 0.0782 nM in [19] and 0.0439 nM in test [20]. Besides, in test [14], the “Maximum MFI” value turned out to be 54800 MFI. This molecule came in with a Kd in [21] of 6.81 nM. The molecule also displayed a koff in [21] of 0.00124 s⁻¹. This molecule also displayed a kon in [21] of 182000 M⁻¹ s⁻¹.

(Values after patent publication EP4471063A1 (Medilink Therapeutics (Suzhou) Co., Ltd., dated 2023).)
